Data from patent publication US20140105889A1 (published 2014).
Substitutions are numbered along the chain they refer to. Names and notes keep the numbering of the source. Values belong to the binder of their own block, whether it stands above or below them.

Assays:
[1] = molecular target: T1, human FcRn (soluble human FcRn complexed with beta2-microglobulin) (human, UniProt P61769 21-119); assay: Biacore SPR, antibody captured on Protein L, human FcRn analyte, pH 7.0
T1 construct: Soluble human FcRn complexed with beta2-microglobulin; also called hFcRn

human FcRn = molecular target: T2, human FcRn (human); assay: SPR (Biacore), pH 7.0, 25 C, antibody captured by Protein L, human FcRn as analyte
T2 construct: also called hFcRn; soluble human FcRn complexed with β2-microglobulin

FcγRIIIa type V [2] = molecular target: T3, FcγRIIIa type V (human, UniProt P08637 17-208, limits assumed); assay: SPR (Biacore), captured antibody, FcγR as analyte, method of Example 14
T3 construct: also called FcγRIIIaV; FcγRIIIa(V)

FcγRIIa type H = molecular target: T4, FcγRIIa type H (human, UniProt P12318 36-217); assay: as above
T4 construct: also called FcγRIIaH; FcγRIIa(H)
T4 sequence: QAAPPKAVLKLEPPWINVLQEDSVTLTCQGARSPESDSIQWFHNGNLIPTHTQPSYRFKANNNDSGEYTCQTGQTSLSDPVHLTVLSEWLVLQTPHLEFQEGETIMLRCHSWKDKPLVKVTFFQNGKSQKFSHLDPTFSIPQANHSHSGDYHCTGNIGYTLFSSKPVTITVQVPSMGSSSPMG

mouse FcγRIV = molecular target: T5, mouse FcγRIV (mouse); assay: SPR (Biacore), antibody captured on Protein L, mouse FcγR as analyte, pH 7.4, 25 C
T5 construct: Bought soluble receptor; also called mFcgRIV; mFcgR IV
T5 sequence (A0A0B4J1G0 21-203): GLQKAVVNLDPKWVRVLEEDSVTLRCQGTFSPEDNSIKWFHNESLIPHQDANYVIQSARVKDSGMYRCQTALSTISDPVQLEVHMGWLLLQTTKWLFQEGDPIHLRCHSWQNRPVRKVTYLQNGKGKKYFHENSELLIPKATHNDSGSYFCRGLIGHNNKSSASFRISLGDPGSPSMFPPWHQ

FcγRIIb = molecular target: T6, FcγRIIb (human, UniProt P31994 43-217, limits assumed); assay: SPR (Biacore), antibody captured on chip, FcγR as analyte, method of Example 14
T6 construct: Soluble analyte in Biacore; also called FcgRIIb; FcγIIB
T6 sequence: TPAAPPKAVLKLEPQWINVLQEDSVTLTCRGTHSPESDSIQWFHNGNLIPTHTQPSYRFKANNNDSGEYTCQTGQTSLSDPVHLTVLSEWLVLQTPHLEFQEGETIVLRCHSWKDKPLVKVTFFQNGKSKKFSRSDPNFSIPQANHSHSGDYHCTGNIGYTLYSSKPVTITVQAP

FcγRIIIa type V [3] = molecular target: T7, FcγRIIIa type V (human, UniProt P08637 17-208, limits assumed); assay: as above
T7 construct: Soluble analyte in Biacore; also called FcγRIIIaV; FcγRIIIa(V)

human FcγRIIIa(F) = molecular target: T8, human FcγRIIIa(F) (human, UniProt P08637 17-208, limits assumed); assay: SPR (Biacore), antibody captured by Protein L, FcγR as analyte, pH 7.4, 25°C; amount normalised to captured antibody
T8 construct: also called FcgRIIIaF; hFcgRIIIa(F)
T8 sequence (P08637 other isoform, or with tags, fused parts or gaps limits assumed): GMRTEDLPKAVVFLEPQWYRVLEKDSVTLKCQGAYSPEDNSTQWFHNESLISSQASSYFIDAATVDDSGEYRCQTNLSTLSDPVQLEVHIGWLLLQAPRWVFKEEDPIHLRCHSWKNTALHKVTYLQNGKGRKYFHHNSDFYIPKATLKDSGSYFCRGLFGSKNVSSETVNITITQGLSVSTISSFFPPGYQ

B1: IgG1-F273 (antibody, name in EU numbering)
heavy: QVQLQESGPGLVKPSETLSLTCAVSGHSISHDHAWSWVRQPPGEGLEWIGFISYSGITNYNPSLQGRVTISRDNSKNTLYLQMNSLRAEDTAVYYCARSLARTTAMDYWGEGTLVTVSSASTKGPSVFPLAPSSKSTSGGTAALGCLVKDYFPEPVTVSWNSGALTSGVHTFPAVLQSSGLYSLSSVVTVPSSSLGTQTYICNVNHKPSNTKVDKKVEPKSCDKTHTCPPCPAPELLGGPSVFLFPPKPKDTLYISRTPEVTCVVVDVSHEDPEVKFNWYVDGVEVHNAKTKPREEQYNSTYRVVSVLTVLHQDWLNGKEYKCKVSNKALPAPIEKTISKAKGQPREPQVYTLPPSRDELTKNQVSLTCLVKGFYPSDIAVEWASNGQPENNYKTTPPVLDSDGSFFLYSKLTVDKSRWQQGNVFSCSVFHEALHYHYTQKSLSLSP
light: not shown
notes: Fc variant of VH3-IgG1; copies: 2 + 2
- Kd [1]: 650 nM

B2: F1269 (antibody, name in EU numbering)
heavy: B1 heavy with L237R, S241K, A384E, F430M, H435D, Y438V, Q440K, S442D
light: not shown
notes: copies: 2 + 2
- Kd (human FcRn): 169 nM

B3: IL6R-BP182/IL6R-L (antibody, human IgG1)
heavy: B1 heavy with E235D, P240D, Y254M, P273G, Y298D, A332K, A384E, F430M, Y436N, K441E
light: DIQMTQSPSSLSASVGDRVTITCRASQDISSYLNWYQQKPGKAPKLLIYYTSRLHSGVPSRFSGSGSGTDFTFTISSLQPEDIATYYCQQGNTLPYTFGQGTKVEIK
notes: EU numbering
- Kd (FcγRIIIa type V [2]): 68000 nM
- Kd (FcγRIIa type H): 2600 nM

B4: F1272 (antibody, name in EU numbering)
heavy: B1 heavy with L237R, S241K, S256A, A384E, F430M, H435D, Y438V, Q440K, S442D
light: not shown
notes: copies: 2 + 2
- Kd (human FcRn): 171 nM

B6: IL6R-BP207/IL6R-L (antibody, human IgG1)
heavy: B1 heavy with E235D, P240D, Y254M, A332R, A384E, F430M, Y436N, K441E
light: B3 light
notes: Anti-human IL-6 receptor IgG1 Fc variant
- Kd (FcγRIIb): 640 nM
- Kd (FcγRIIIa type V [3]): 65000 nM

B7: IgG1-F271 (antibody, name in EU numbering)
heavy: B1 heavy with D378A, A384E
light: not shown
notes: as for B1
- Kd [1]: 690 nM

B9: antibody containing VH3-IgG2-F890 and L(WT)-CK (antibody)
heavy: QVQLQESGPGLVKPSETLSLTCAVSGHSISHDHAWSWVRQPPGEGLEWIGFISYSGITNYNPSLQGRVTISRDNSKNTLYLQMNSLRAEDTAVYYCARSLARTTAMDYWGEGTLVTVSSASTKGPSVFPLAPCSRSTSESTAALGCLVKDYFPEPVTVSWNSGALTSGVHTFPAVLQSSGLYSLSSVVTVPSSNFGTQTYTCNVDHKPSNTKVDKTVERKCCVECPPCPAPPVAGPSVFLFPPKPKDTLYISRTPEVTCVVVDVSHEDPEVQFNWYVDGVEVHNAKTKPREEQFNSTFRVVSVLTVVHQDWLNGKEYKCKVSNKGLPAPIEKTISKTKGQPREPQVYTLPPSREEMTKNQVSLTCLVKGFYPSDIAVEWESNGQPENNYKTTPPMLDSDGSFFLYSKLTVDKSRWQQGNVFSCSVMHEALHYHVTQKSLSLSP
light: not shown
notes: VH3-IgG2 with M252Y/N434Y/Y436V (EU numbering)
- BINDING AMOUNT (RU) (human FcγRIIIa(F)): 9.3 RU

B10: antibody containing VH3-IgG2 and L(WT)-CK (antibody)
heavy: B9 heavy with Y250M, Y432N, V434Y
light: not shown
- BINDING AMOUNT (RU) (human FcγRIIIa(F)): 16.3 RU

B12: antibody containing VH3-IgG4-F890 and L(WT)-CK (antibody)
heavy: QVQLQESGPGLVKPSETLSLTCAVSGHSISHDHAWSWVRQPPGEGLEWIGFISYSGITNYNPSLQGRVTISRDNSKNTLYLQMNSLRAEDTAVYYCARSLARTTAMDYWGEGTLVTVSSASTKGPSVFPLAPCSRSTSESTAALGCLVKDYFPEPVTVSWNSGALTSGVHTFPAVLQSSGLYSLSSVVTVPSSSLGTKTYTCNVDHKPSNTKVDKRVESKYGPPCPPCPAPEFLGGPSVFLFPPKPKDTLYISRTPEVTCVVVDVSQEDPEVQFNWYVDGVEVHNAKTKPREEQFNSTYRVVSVLTVLHQDWLNGKEYKCKVSNKGLPSSIEKTISKAKGQPREPQVYTLPPSQEEMTKNQVSLTCLVKGFYPSDIAVEWESNGQPENNYKTTPPVLDSDGSFFLYSRLTVDKSRWQEGNVFSCSVMHEALHYHVTQKSLSLSL
light: not shown
notes: VH3-IgG4 with M252Y/N434Y/Y436V (EU numbering)
- BINDING AMOUNT (RU) (human FcγRIIIa(F)): 3.4 RU

Further lines, results first:

- BINDING AMOUNT (RU) (mouse FcγRIV): 138 RU
B5: antibody with VH3-IgG1-F424 heavy chain and L(WT)-CK light chain (antibody)
heavy: B1 heavy with S241K, Y254M, P259A, V310P, A384E, F430L
light: not shown
notes: copies: 2 + 2

- BINDING AMOUNT (RU) (mouse FcγRIV): 243 RU
B8: antibody with VH3-IgG1-F157 heavy chain and L(WT)-CK light chain (antibody)
heavy: B1 heavy with Y254M, P259A, V310P, A384E, F430L
light: not shown
notes: copies: 2 + 2

- BINDING AMOUNT (RU) (human FcγRIIIa(F)): 0.6 RU
B11: antibody containing VH3-IgG2-F939 and L(WT)-CK (antibody)
heavy: B9 heavy with A234R, S237K
light: not shown
notes: VH3-IgG2 with A235R/S239K/M252Y/N434Y/Y436V (EU numbering)

- BINDING AMOUNT (RU) (human FcγRIIIa(F)): -1.7 RU
B13: antibody containing VH3-IgG4-F939 and L(WT)-CK (antibody)
heavy: B12 heavy with L234R, S238K
light: not shown
notes: VH3-IgG4 with L235R/S239K/M252Y/N434Y/Y436V (EU numbering)
